The source of these data is article PMC4317567.

The target in the assay is fTHP-15 fluorogenic triple-helical peptide substrate.
In the case of MT1-MMP ectodomain N347A (enzyme), the Km of triple-helical peptidase activity (hydrolysis of fTHP-15), 27 °C, pH 7.5 was found to be 790 nM. As for MT1-MMP ectodomain R330A (enzyme), the Km of triple-helical peptidase activity (hydrolysis of fTHP-15), 27 °C, pH 7.5 stood at 980 nM. As for MT1-MMP ectodomain F360G (enzyme), the Km of triple-helical peptidase activity (hydrolysis of fTHP-15), 27 °C, pH 7.5 was 1.7 µM. The same measure for “MT1-MMP catalytic domain, wild type (enzyme)”: 8.9 µM. In the case of MT1-MMP ectodomain R343A (enzyme), the Km of triple-helical peptidase activity (hydrolysis of fTHP-15), 27 °C, pH 7.5 stood at 4.3 µM.

For MT1-MMP ectodomain R345A (enzyme), the Km of triple-helical peptidase activity (hydrolysis of fTHP-15), 27 °C, pH 7.5 came to 1.7 µM.

As to MT1-MMP ectodomain E392A (enzyme), the Km of triple-helical peptidase activity (hydrolysis of fTHP-15), 27 °C, pH 7.5 was 1.6 µM. On to “MT1-MMP soluble ectodomain, wild type (C127S-substituted) (enzyme)”, for which the Km of triple-helical peptidase activity (hydrolysis of fTHP-15), 27 °C, pH 7.5 is 820 nM.
